For one experiment, the target named is human PDL1 on cells (human, UniProt Q9NZQ7 19-290). The experiment can be described thus: cell-based or functional assay.
In experiment [1] the target is human PDL1 protein (Octet assay) (human, UniProt Q9NZQ7 19-238). Put plainly: Octet; antibody on sensor, PDL1 protein in solution. The protocol: The Anti-PDL1/SIRPα bispecific protein were characterized for binding affinity against human PDL1 using Octet assay (ForeBio) according to manufacturer's manual, separately. Briefly, the antibodies were coupled on sensors and then the sensors were dipped into PDL1 protein gradients (start at 200 nM, with 2-fold dilution and totally 8 doses). Their binding responses were measured in real-time and results were fit globally.
Sequence of human PDL1 protein (Octet assay) (Q9NZQ7 19-238 limits assumed): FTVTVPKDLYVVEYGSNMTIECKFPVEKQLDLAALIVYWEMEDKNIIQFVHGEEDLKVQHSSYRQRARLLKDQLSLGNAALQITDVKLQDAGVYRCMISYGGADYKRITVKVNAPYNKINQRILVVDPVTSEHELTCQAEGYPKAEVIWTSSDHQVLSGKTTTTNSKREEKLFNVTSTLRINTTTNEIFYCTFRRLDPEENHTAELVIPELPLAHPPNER

For experiment [2], the target named is Full length human SIRPα v1 with beta-gal fragment (ED) at its C-terminal, in K562 cells (human, UniProt P78324 31-504). The experiment can be described thus: cell-based or functional assay.
Sequence of Full length human SIRPα v1 with beta-gal fragment (ED) at its C-terminal, in K562 cells (P78324 31-504): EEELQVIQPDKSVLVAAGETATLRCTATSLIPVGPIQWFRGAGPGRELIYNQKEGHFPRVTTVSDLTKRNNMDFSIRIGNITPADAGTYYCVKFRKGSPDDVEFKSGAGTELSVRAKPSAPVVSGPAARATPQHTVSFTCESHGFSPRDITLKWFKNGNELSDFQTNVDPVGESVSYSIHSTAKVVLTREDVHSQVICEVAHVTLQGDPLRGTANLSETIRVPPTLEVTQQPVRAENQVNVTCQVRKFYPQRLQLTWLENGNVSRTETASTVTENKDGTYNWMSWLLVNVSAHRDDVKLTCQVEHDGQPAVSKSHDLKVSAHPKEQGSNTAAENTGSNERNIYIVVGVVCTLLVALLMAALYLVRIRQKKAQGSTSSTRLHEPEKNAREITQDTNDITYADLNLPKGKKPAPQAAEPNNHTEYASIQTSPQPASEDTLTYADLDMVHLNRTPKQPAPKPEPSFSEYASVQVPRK
In another experiment the target is T1, Human SIRPα v2 (human).
T1 construct: also called human SIRPα v2 (antigen of the Biacore assay)
The experiment can be described thus: SPR (Biacore), 1:1 binding model. The protocol: The humanized antibodies were characterized for binding affinity against human SIRPα v1, human SIRPα v2 using Surface Plasmon Resonance technology (Biacore system). The association and dissociation curves were fit with 1:1 binding model, and the Ka/Kd/KD values for each antibody were calculated.
A general note: SPR reads the build-up and loss of mass on a sensor chip optically.

Experiment [3] concerns the target T2, human SIRPα v1 on CHOK1 cells (human, UniProt P78324 31-504).
T2 construct: whole, on cells; also called CHOK1-hSIRPα v1; cell surface human SIRPα v1
Put plainly: FACS, CHOK1 cells stably expressing human SIRPα v1. (In flow cytometry, cells or beads pass a laser one at a time.)

Experiment [4] has as its target T3, human SIRPα v2 on CHOK1 cells (human, UniProt P78324 31-504).
T3 construct: whole, on cells; also called CHOK1-hSIRPα v2; cell surface human SIRPα v2
Put plainly: FACS, CHOK1 cells stably expressing human SIRPα v2.

In experiment [5] the target is T4, human SIRPα v1 ECD recombinant protein (human, UniProt P78324 31-373).
T4 construct: extracellular domain; Coated on the ELISA plate
T4 sequence (P78324 31-373): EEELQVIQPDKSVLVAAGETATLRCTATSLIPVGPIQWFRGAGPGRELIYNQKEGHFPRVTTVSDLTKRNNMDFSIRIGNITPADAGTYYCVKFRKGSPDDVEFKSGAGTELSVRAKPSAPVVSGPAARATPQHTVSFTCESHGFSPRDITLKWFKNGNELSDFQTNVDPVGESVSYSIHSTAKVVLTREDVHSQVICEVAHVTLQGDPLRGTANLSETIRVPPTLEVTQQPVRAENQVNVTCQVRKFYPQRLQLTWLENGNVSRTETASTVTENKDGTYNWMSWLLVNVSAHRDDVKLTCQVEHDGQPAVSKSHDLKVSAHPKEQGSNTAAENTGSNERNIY
The experiment can be described thus: competitive ELISA, plate-coated human SIRPα v1 ECD; blocked ligand: mFc tagged human CD47 ECD. The protocol:
(§1) Competitive ELISA assay was used to determine whether the purified chimeric antibodies can block CD47 and SIRPα interaction. Briefly, antibody and mFc tagged human CD47 ECD recombinant protein were co-incubated with ELISA microplate coated human SIRPα v1 ECD or human SIRPα v2 ECD recombinant protein. The concentration of soluble ECD of CD47 is 25 nM, and the concentration of soluble ECD of SIRPα is 20 nM. After washing, HRP labeled anti-mouse Fc 2nd antibody (Sigma) was added and incubated at 37° C. for 1 hour. Then, 100 μl/well of TMB solution (Biotechnology) was added. After incubation for 15 minutes at room temperature, the reaction was stopped by the addition of 50 μl of 1N HCl. OD 450 nm was read. Blocking ratio was determined by blockade of human SIRPα ECD recombinant protein binding to ELISA microplate coated human CD47 ECD recombinant protein. All antibodies as tested can block interaction between human CD47 and different human SIRPα variants.
(§2) The humanized antibodies were tested for the ability to block CD47 and SIRPα interaction with competitive ELISA assay (refer to methods described above).
A general note: In an ELISA, binding on a coated surface is turned into a signal by an enzyme label.

Experiment [6] concerns the target T5, human SIRPα v2 ECD recombinant protein (human).
T5 construct: extracellular domain; Coated on the ELISA plate
The experiment can be described thus: competitive ELISA, plate-coated human SIRPα v2 ECD; blocked ligand: mFc tagged human CD47 ECD. The protocol: as §1, §2

The target in experiment [7] is T2, human SIRPα v1 on CHOK1 cells. The experiment can be described thus: competitive FACS, CHOK1 cells stably expressing human SIRPα v1; blocked ligand: mFc tagged human CD47 ECD. The protocol:
(§3) Competitive FACS assay was also set up to further compare the blocking activity of the humanized antibodies and some known anti-SIRPα antibodies. Briefly antibody and mFc tagged human CD47 ECD recombinant protein were co-incubated with CHOK1 cells stably expressing human SIRPα v1 or human SIRPα v2. After washing, dye labeled anti-mouse Fc 2nd antibody (Sigma) was added and incubated at 37° C. for 1 hour. Fluorescence intensity was detected. Blocking ratio was determined by blockade of human CD47 ECD recombinant protein binding to SIRPα expressed CHOK1 cells.

Experiment [8] deals with T3, human SIRPα v2 on CHOK1 cells. The experiment can be described thus: competitive FACS, CHOK1 cells stably expressing human SIRPα v2; blocked ligand: mFc tagged human CD47 ECD. The protocol:
as §3

T2 sequence (P78324 31-504): as the sequence (P78324 31-504) above
T3 sequence (P78324 other isoform, or with tags, fused parts or gaps limits assumed): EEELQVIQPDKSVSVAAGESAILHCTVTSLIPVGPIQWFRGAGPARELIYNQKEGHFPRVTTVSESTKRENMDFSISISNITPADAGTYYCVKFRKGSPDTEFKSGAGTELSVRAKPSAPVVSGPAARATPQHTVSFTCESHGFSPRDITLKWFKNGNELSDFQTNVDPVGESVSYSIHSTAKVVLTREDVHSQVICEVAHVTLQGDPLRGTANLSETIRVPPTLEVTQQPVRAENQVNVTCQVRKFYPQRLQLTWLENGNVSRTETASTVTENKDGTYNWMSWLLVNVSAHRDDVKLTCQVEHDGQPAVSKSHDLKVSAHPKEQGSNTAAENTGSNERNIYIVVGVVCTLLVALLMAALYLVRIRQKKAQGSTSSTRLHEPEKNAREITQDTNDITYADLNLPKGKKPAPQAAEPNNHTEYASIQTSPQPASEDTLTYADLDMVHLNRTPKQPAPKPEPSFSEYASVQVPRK
Sequence of human PDL1 on cells (Q9NZQ7 19-290): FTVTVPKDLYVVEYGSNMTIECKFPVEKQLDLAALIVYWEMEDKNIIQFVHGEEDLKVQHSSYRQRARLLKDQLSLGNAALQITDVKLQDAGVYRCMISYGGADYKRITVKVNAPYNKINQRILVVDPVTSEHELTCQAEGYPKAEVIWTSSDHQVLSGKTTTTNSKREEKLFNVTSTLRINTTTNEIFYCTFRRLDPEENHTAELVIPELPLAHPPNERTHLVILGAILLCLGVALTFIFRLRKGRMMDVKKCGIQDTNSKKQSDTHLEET

B1: Anti-PDL1/SIRPα bispecific antibody ES019-026 (bispecific antibody, not shown: small tags and cut ends; a dimerising Fc or GST)
light (part 1 of 2): EVQVVESGGGLVQSGGSLKLSCAGSGFTESAGFMVWHRQVPGKERELVALIATPSGSTNYADSVKGRFTISRDNGKNTVYLQMNSLKPEDTAVYYCNIRGYWGQGTLVTVSS
light (part 2 of 2): QIVLTQSPAIMSASPGEKVTLTCSASSSVSSSYLYWYQQKPGSSPKLWIYSTSNLASGVPARFSGSGSGTSYSLTISSMEAEDAASYFCHQWSSYPYTFGGGTKLEIK
heavy: EVQLQQSGAELVKPGASVKLSCTASGFNIKDYYMHWVKQRTEQGLEWIGRIDPEDGETKYAPKFQGKATITADTSSNTAYLQLSSLTSEDTAVYYCDRGLAYWGQGTLVTVSA
By EC50 (read off the curve) is commonly meant the concentration that produces a half-maximal response. A low value points to an effect from little substance. The Kd is the equilibrium constant for the complex coming apart. A lower Kd goes with tighter binding. For orientation: koff means the first-order rate constant of dissociation. The low end stands for slow dissociation, the high end for fast dissociation. For orientation: kon means a measure of how fast the partners come together. Lower therefore signals slower complex formation. In the case of B1, the “EC50 (read off the curve)” value in the experiment with human PDL1 on cells was approximately 1 nM. In addition, in experiment [1], binding was characterised by a dissociation constant (Kd) of 4.1 nM, the koff stood at 0.00639 s⁻¹ and the kon is 1.56e+06 M⁻¹ s⁻¹.

B2: Humanized anti-SIRPα antibody hu025.023 (antibody, V domains shown)
VH: EVQLVQSGAEVKKPGATVKISCKVSGFNIKDYYMHWVQQAPGKGLEWIGRIDPEDAETKYAPKFQGRVTITADTSTNTAYMELSSLRSEDTAVYYCDRGLAYWGQGTLVTVSS
VL: EIVLTQSPATLSLSPGERATLSCSASSSVSSSYLYWYQQKPGQAPKLWIYSTSNLASGIPARFSGSGSGTDFTLTISSLEPEDFAVYYCHQWSSYPYTFGQGTKLEIK
notes: Humanized from C25
As usually defined, the EC50 is the concentration at which the effect is half-maximal. As usually defined, the IC50 is the midpoint of a concentration-inhibition curve. For the molecule B2, in experiment [2], the “IC50 (SHP-1 recruitment blocking)” value was 0.1 nM and the “TOP blocking (SHP-1 recruitment)” value was determined as 85.5%. Moreover, in the experiment with Human SIRPα v2, binding was put at a Kd of 2.78 nM, the koff was found to be 0.00492 s⁻¹ and the kon stood at 1.77e+06 M⁻¹ s⁻¹. In experiment [3], a half-maximal effect (EC50) was put at 1.13 nM and the “TOP MFI” value stood at 57800 MFI. Moreover, in experiment [4], the midpoint of the response, the EC50, lay at 0.81 nM and the “TOP MFI” value was 45800 MFI. Further, in experiment [5], the IC50 was found to be 2.6 nM and the TOP blocking amounted to 97.2%. In experiment [6], the IC50 is 2.07 nM and the TOP blocking amounted to 98%. In experiment [7], this molecule gave a half-inhibitory concentration (IC50) of 0.57 nM and a TOP blocking of 97.7%. Further, in experiment [8], the IC50 is 0.75 nM and the TOP blocking was found to be 100%.

B3: Humanized anti-SIRPα antibody hu025.060 (antibody, V domains shown)
VH: EVQLVQSGAEVKKPGATVKISCKASGFNIKDYYMHWVQQAPGKGLEWIGRIDPEDAETKYAPKFQGRVTITADTSTNTAYMELSSLRSEDTAVYYCDRGLAYWGQGTLVTVSS
VL: EIVLTQSPATLSLSPGERATLSCSASSSVSSSYLYWYQQKPGQAPKLWIYSTSNLASGIPARFSGSGSGTDFTLTISSLEPEDFAVYYCHQWSSYPYTFGQGTKLEIK
notes: Humanized from C25
Consider B3, for which, in experiment [2], the “IC50 (SHP-1 recruitment blocking)” value turned out to be 0.09 nM and the “TOP blocking (SHP-1 recruitment)” value came out at 87.5%. In the experiment with Human SIRPα v2, this molecule showed a Kd of 2.34 nM, a koff of 0.00344 s⁻¹ and a kon of 1.47e+06 M⁻¹ s⁻¹. Further, in [3], the midpoint of the response, the EC50, lay at 0.84 nM and the “TOP MFI” value is 61500 MFI. Moreover, in experiment [4], the EC50 was 0.8 nM and the “TOP MFI” value was found to be 48800 MFI. Moreover, in [5], the IC50 came out at 2.15 nM and the TOP blocking is 95.2%. Besides, in experiment [6], the IC50 was found to be 1.88 nM and the TOP blocking is 97%. In [7], this molecule registered an IC50 of 0.53 nM and a TOP blocking of 98.7%. In [8], this molecule registered an IC50 of 0.77 nM and a TOP blocking of 99.8%.

Source of the values: patent publication US20240336686A1 (ELPISCIENCE SUZHOU BIOPHARMA, published 2024).
